Source: patent publication US20160082074A1

Legend:
[1] = target: calcineurin; assay: cell-based or functional assay
[2] = target: human cyclophilin A (human) (UniProt P62937); assay: cell-based or functional assay
human cyclophilin A (human), sequence (P62937 whole entry): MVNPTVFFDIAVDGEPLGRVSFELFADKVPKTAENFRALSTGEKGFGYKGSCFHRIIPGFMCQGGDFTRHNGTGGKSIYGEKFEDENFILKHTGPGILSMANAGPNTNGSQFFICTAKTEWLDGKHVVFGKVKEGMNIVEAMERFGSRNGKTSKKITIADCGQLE

Row | Substance | In vitro inhibition CnA IC50 [1] [nM] | In vitro inhibition human CypA IC50 [nM] (protease-coupled PPIase assay) [2]
1 | CypA/CsA complex | 50 | –
2 | cyclosporin A (peptide) | – | 9.1
